{
  "source": "paper PMC6056229",
  "about": "“Cryo-EM structure of the polycystin 2-l1 ion channel” (eLife, 2018)",
  "biological_target": "the molecule itself",
  "test": "cryo-EM structure; single particle cryo-EM of purified full-length polycystin 2-l1 in amphipol PMAL-C8, HKN buffer (HEPES 50, KCl 150, NaCl 50, CaCl2 5 mM; pH 7.5), C4 symmetry imposed, 3.3 Å",
  "data": [
    {"protein": "human polycystic kidney disease 2-like 1 (polycystin 2-l1) ion channel (natural protein, UniProt Q9P0L9 1-805, looked up, glycan at N207; disulfide bond C210-C223, polycystin 2-l1 (PKD2L1), human, full length; synthetic gene, not codon optimized; UniProt Q9P0L9; No cleavage of the MBP tag is described; fractions were found by western blot against MBP during the preparation for cryo-EM; The N terminus, the S4-S5 linker and the C terminus are not resolved in the map; also called PKD2L1; PC-2L1) MNAVGSPEGQELQKLGSGAWDNPAYSGPPSPHGTLRVCTISSTGPLQPQPKKPEDEPQETAYRTQVSSCCLHICQGIRGLWGTTLTENTAENRELYIKTTLRELLVYIVFLVDICLLTYGMTSSSAYYYTKVMSELFLHTPSDTGVSFQAISSMADFWDFAQGPLLDSLYWTKWYNNQSLGHGSHSFIYYENMLLGVPRLRQLKVRNDSCVVHEDFREDILSCYDVYSPDKEEQLPFGPFNGTAWTYHSQDELGGFSHWGRLTSYSGGGYYLDLPGSRQGSAEALRALQEGLWLDRGTRVVFIDFSVYNANINLFCVLRLVVEFPATGGAIPSWQIRTVKLIRYVSNWDFFIVGCEVIFCVFIFYYVVEEILELHIHRLRYLSSIWNILDLVVILLSIVAVGFHIFRTLEVNRLMGKLLQQPNTYADFEFLAFWQTQYNNMNAVNLFFAWIKIFKYISFNKTMTQLSSTLARCAKDILGFAVMFFIVFFAYAQLGYLLFGTQVENFSTFIKCIFTQFRIILGDFDYNAIDNANRILGPAYFVTYVFFVFFVLLNMFLAIINDTYSEVKEELAGQKDELQLSDLLKQGYNKTLLRLRLRKERVSDVQKVLQGGEQEIQFEDFTNTLRELGHAEHEITELTATFTKFDRDGNRILDEKEQEKMRQDLEEERVALNTEIEKLGRSIVSSPQGKSGPEAARAGGWVSGEEFYMLTRRVLQLETVLEGVVSQIDAVGSKLKMLERKGWLAPSPGVKEQAIWKHPQPAPAVTPDPWGVQGGQESEVPYKREEEALEERRLSRGEIPTLQRS", "values": [
      {"measurement": "stoichiometry N", "result": 4}
    ]}
  ]
}
